Measurements: the RNAGym collection of RNA variant scans (doi:10.7554/elife.80360)

B1: HDV Ribozyme (parent)
chain: GGCCGGCAUGGUCCCAGCCUCCUCGCUGGCGCCGGCUGGGCAACAUUCCGAGGGGACCGUCCCCUCGGUAAUGGCGAAUGGGACCCA

Variants of: B1
Assay: self-cleavage, relative activity (ratio to wild type); higher = more cleavage; co-transcriptional

| Variant | self-cleavage |
| --- | --- |
| GGCCGGCAUGGUACCAGACUCCUCGCUGGCGCCGGCUGGGCAACAUUCCGAGGGGACCGUCCCCUCGGUAAUGGCGAAUGGGACCCA [C13A C18A] | 0.169 |
| GGCCGGCAUGGGCCCAGCCUCCGCGCUGGCGCCGGCUGGGCAACAUUCCGAGGGGACCGUCCCCUCGGUAAUGGCGAAUGGGACCCA [U12G U23G] | 0.256 |
| GGCCGGCAUGGUACCAGCCUCCUCGCUGGCGCCGGCUGGGCAACAUUCCGAGGGGACGGUCCCCUCGGUAAUGGCGAAUGGGACCCA [C13A C58G] | 0.0639 |
| GGCCGGCAUGGUACCAGCCUCCUCGCUGGCGCCGGCUGGGCAACAUUCCGAGGGGACAGUCCCCUCGGUAAUGGCGAAUGGGACCCA [C13A C58A] | 0.155 |
| GGCCGGCAUGGUACCAGCCUCCUCGCUGGCGCCGGCUGGGCAACAUUCCGAGGGGACCGUCCACUCGGUAAUGGCGAAUGGGACCCA [C13A C63A] | 0.155 |
| GGCCGGCAUGGGCCCAGCCUCCUCGCUGGCGCCGGCUGGGCAACAUUCCGAGGGGACCGUCCCCACGGUAAUGGCGAAUGGGACCCA [U12G U65A] | 1.06 |
| GGCCGGCAUGGUACCAGCCUCCUCGCUGGGGCCGGCUGGGCAACAUUCCGAGGGGACCGUCCCCUCGGUAAUGGCGAAUGGGACCCA [C13A C30G] | 0.0282 |
| GGCCGGCAUGGUACCAGCCUCCUCGCUGGAGCCGGCUGGGCAACAUUCCGAGGGGACCGUCCCCUCGGUAAUGGCGAAUGGGACCCA [C13A C30A] | 0.0594 |
| GGCCGGCAUGGUACCAGCCUCCUCGCUGGCGCGGGCUGGGCAACAUUCCGAGGGGACCGUCCCCUCGGUAAUGGCGAAUGGGACCCA [C13A C33G] | 0.175 |
| GGCCGGCAUGGUACCAGCCUCCUCGCUGCCGCCGGCUGGGCAACAUUCCGAGGGGACCGUCCCCUCGGUAAUGGCGAAUGGGACCCA [C13A G29C] | 0 |
| GGCCGGCAUGGUACCAGCCUCCUCGCUGGCGCCGGCUGGGCAACAUUCCGAGGGGACCGUCGCCUCGGUAAUGGCGAAUGGGACCCA [C13A C62G] | 0.287 |
| GGCCGGCAUGGGCCCAGCCUCCUCGCUGGCGCCGGCUGGGCAACAUUCCGAGGGUACCGUCCCCUCGGUAAUGGCGAAUGGGACCCA [U12G G55U] | 0.748 |
| GGCCGGCAUGGUACCAGCCUCCUCGCUGGCGCCGGCUGGGCAACAUUCCGAGGGGACCCUCCCCUCGGUAAUGGCGAAUGGGACCCA [C13A G59C] | 0.237 |
| GGCCGGCAUGGUACCAGCCUCCUCGCUGGCGCCGGCUGGGCAACAUUCCGAGGGGACCGUGCCCUCGGUAAUGGCGAAUGGGACCCA [C13A C61G] | 0.0959 |
| GGCCGGCAUGGUACCAGCCUCCUCGCUGGCGCCGGCUGGGCAACAUUCCGAGGGGACCGUACCCUCGGUAAUGGCGAAUGGGACCCA [C13A C61A] | 0.163 |
| GGCCGGCAUGGUACCAGCCUCCUCGCUGGCGCCGGCUGGGCAACAUUCCGAGGGGACCGUCCCCUCGGUACUGGCGAAUGGGACCCA [C13A A71C] | 0.135 |
| GGCCGGCAUGGUACCAGCCUCCUCGCUGGCGCCGGCUGGGCAACAUUCCGAGGGGACCGUCCCCUCGGUAGUGGCGAAUGGGACCCA [C13A A71G] | 0 |
| GGCCGGCAUGGUACCAGCCUCCUCGCUGGCGCCGGCUGGGCAACGUUCCGAGGGGACCGUCCCCUCGGUAAUGGCGAAUGGGACCCA [C13A A45G] | 0.158 |
| GGCCGGCAUGGUACCAGCCUCCUCGCUGGCGCCGGCUGGGCAACAUUCAGAGGGGACCGUCCCCUCGGUAAUGGCGAAUGGGACCCA [C13A C49A] | 0.0489 |
| GGCCGGCAUGGGCCCAGCCUCCUCGCUGGCGCCGGCAGGGCAACAUUCCGAGGGGACCGUCCCCUCGGUAAUGGCGAAUGGGACCCA [U12G U37A] | 0.0554 |
| GGCCGGCAUGGUACCAGCCUCCUCGCUGGCGCCGGCUGGGCAACAUUCCGAGGGGACCGUCCCCUCGGUGAUGGCGAAUGGGACCCA [C13A A70G] | 0.166 |
| GGCCGGCAUGGGCCCAGCCUCCUCGCUGGCGCCGGCUGGGCAACAGUCCGAGGGGACCGUCCCCUCGGUAAUGGCGAAUGGGACCCA [U12G U46G] | 0.692 |

| Variant | self-cleavage |
| --- | --- |
| GGCCGGCAUGGGCCCAGCCUCCUCGCUGGCGCCGGCUGGGCAACAAUCCGAGGGGACCGUCCCCUCGGUAAUGGCGAAUGGGACCCA [U12G U46A] | 0.332 |
| GGCCGGCAUGGUACCAGCCUCCUCGCUGGCGCCGUCUGGGCAACAUUCCGAGGGGACCGUCCCCUCGGUAAUGGCGAAUGGGACCCA [C13A G35U] | 0.125 |
| GGCCGGCAUGGUACCAGCCUCCUCGCUGGCGCCGGCUGGGCUACAUUCCGAGGGGACCGUCCCCUCGGUAAUGGCGAAUGGGACCCA [C13A A42U] | 0.0845 |
| GGCCGGCAUGGUACCAGCCUCCUCGCUGGCGCCGGCUGGGCGACAUUCCGAGGGGACCGUCCCCUCGGUAAUGGCGAAUGGGACCCA [C13A A42G] | 0.142 |
| GGCCGGCAUGGUACCAUCCUCCUCGCUGGCGCCGGCUGGGCAACAUUCCGAGGGGACCGUCCCCUCGGUAAUGGCGAAUGGGACCCA [C13A G17U] | 0.169 |
| GGCCGGCAUGGUACCAGCCUCCUCGCUGGCGCCGGCUGGGCAACAUUCCGAGCGGACCGUCCCCUCGGUAAUGGCGAAUGGGACCCA [C13A G53C] | 0.133 |
| GGCCGGCAUGGGCCCAGCCUCCUCGCUGGCGCCGGCUGGGCAACAUUCCGAGGGGACCGUCCCCUCGGUAAUGGCGAAUCGGACCCA [U12G G80C] | 0.0791 |
| GGCCGGCAUGGUACCAGCCUCCUCGAUGGCGCCGGCUGGGCAACAUUCCGAGGGGACCGUCCCCUCGGUAAUGGCGAAUGGGACCCA [C13A C26A] | 0.623 |
| GGCCGGCAUGGUACCAGCCUCCUCGGUGGCGCCGGCUGGGCAACAUUCCGAGGGGACCGUCCCCUCGGUAAUGGCGAAUGGGACCCA [C13A C26G] | 0.657 |
| GGCCGGCAUGGGCCCAGCCUCCUCGCUGGCGCCGGCUGGGCAACAUUCCGACGGGACCGUCCCCUCGGUAAUGGCGAAUGGGACCCA [U12G G52C] | 0.937 |
| GGCCGGCAUGGUACCAGCCUCCUCGCUGGCGCCGGCUGGGCAACAUUCCGAGGGGACCGUCCCCUCGGUAAUGGCGGAUGGGACCCA [C13A A77G] | 0 |
| GGCCGGCAUGGUACCAGCCUCCUCGCUGGCGCCGGCUGGGCAACAUUCCGAGGGGACCGUCCCCUCGGUAAUGGCGCAUGGGACCCA [C13A A77C] | 0.0462 |
| GGCCGGCAUGGUACCAGCCUCCUCGCUGGCGCCGGCUGGGCAUCAUUCCGAGGGGACCGUCCCCUCGGUAAUGGCGAAUGGGACCCA [C13A A43U] | 0.154 |
| GGCCGGCAUGGGCCCAGCCUCCUCGCUGGCGCCGGCUGGGCAACAUUCCGAGGGGACCUUCCCCUCGGUAAUGGCGAAUGGGACCCA [U12G G59U] | 0.973 |
| GGCCGGCAUGGUACCAGCCUCCUCGCUGGCGCCGGCUGCGCAACAUUCCGAGGGGACCGUCCCCUCGGUAAUGGCGAAUGGGACCCA [C13A G39C] | 0.0554 |
| GGCCGGCAUGGUACCAGCCUCCUCGCUGGCGCCGGCUGGGCAACAUUCCGUGGGGACCGUCCCCUCGGUAAUGGCGAAUGGGACCCA [C13A A51U] | 0.172 |
| GGCCGGCAUGGGCCCAGCCACCUCGCUGGCGCCGGCUGGGCAACAUUCCGAGGGGACCGUCCCCUCGGUAAUGGCGAAUGGGACCCA [U12G U20A] | 0.0573 |
| GGCCGGCAUGGUACCAGCCUCCUCGCUAGCGCCGGCUGGGCAACAUUCCGAGGGGACCGUCCCCUCGGUAAUGGCGAAUGGGACCCA [C13A G28A] | 0.0875 |
| GGCCGGCAUGGUACCAGCCUCCUCGCUUGCGCCGGCUGGGCAACAUUCCGAGGGGACCGUCCCCUCGGUAAUGGCGAAUGGGACCCA [C13A G28U] | 0.172 |
| GGCCGGCAUGGUACCAGCCUCCUCGCUGGCACCGGCUGGGCAACAUUCCGAGGGGACCGUCCCCUCGGUAAUGGCGAAUGGGACCCA [C13A G31A] | 0.0594 |
| GGCCGGCAUGGUACCAGCCUCCUCGCUGGCCCCGGCUGGGCAACAUUCCGAGGGGACCGUCCCCUCGGUAAUGGCGAAUGGGACCCA [C13A G31C] | 0 |
| GGCCGGCAUGGUACCAGCCUCCUCGCUGGCGCCGGCUGGGCAACAUUCCGAGGGGACCGUCCCCUCGGUAAUGGCGAAUGGGUCCCA [C13A A83U] | 0.142 |

| Variant | self-cleavage |
| --- | --- |
| GGCCGGCAUGGUACCAGCCUCCUCGCUGGCGCCGGCUGGGCAACAUUCCCAGGGGACCGUCCCCUCGGUAAUGGCGAAUGGGACCCA [C13A G50C] | 0.283 |
| GGCCGGCAUGGUACCAGCCUCCUCGCUGGCGCCGGCUGGGCAACAUUCCGAGGGGACCGUCCCCUCGGUAAUGGCGAAUGGGACCUA [C13A C86U] | 0.242 |
| GGCCGGCAUGGGCCCAGCCUCCUCGCUGGCGCCGGCUGGGCAACAUUCCGAGGGGACCGUCCCCUCGUUAAUGGCGAAUGGGACCCA [U12G G68U] | 0.779 |
| GGCCGGCAUGGUACCAGCCUCCUUGCUGGCGCCGGCUGGGCAACAUUCCGAGGGGACCGUCCCCUCGGUAAUGGCGAAUGGGACCCA [C13A C24U] | 0.145 |
| GGCCGGCAUGGGCCCAGCCUCCUCGCUGGCGCCGGCUGGGCAACAUUCCGAGGGGACCGUCCCCUCGGAAAUGGCGAAUGGGACCCA [U12G U69A] | 0.997 |
| GGCCGGCAUGGUACCAGCCUCCUCGCUGGCGCCGGCUGGGCAACAUUCCGAGGGGAACGUCCCCUCGGUAAUGGCGAAUGGGACCCA [C13A C57A] | 0.185 |
| GGCCGGCAUGGGCCCAGCCUCCUCGCUGGCGCCGGCUGGGCAACAUUCCAAGGGGACCGUCCCCUCGGUAAUGGCGAAUGGGACCCA [U12G G50A] | 0.787 |
| GGCCGGCAUGGUACCAGCCUCCUCGCUGGCGCCGGCUGGGCAACAUUCCGAGGGGACCGUCCCCUCGGUAAUGGCGAAUGGGACACA [C13A C85A] | 0.19 |
| GGCCGGCAUGGGCCCAGCCUCCUCGCUGGCGCCGGCUGGGCAACAUACCGAGGGGACCGUCCCCUCGGUAAUGGCGAAUGGGACCCA [U12G U47A] | 0.776 |
| GGCCGGCAUGGUACCUGCCUCCUCGCUGGCGCCGGCUGGGCAACAUUCCGAGGGGACCGUCCCCUCGGUAAUGGCGAAUGGGACCCA [C13A A16U] | 0.536 |
| GGCCGGCAUGGUACCAGCCUCCUCGCUGGCGCCGGCUGGGCAACAUUCCGAUGGGACCGUCCCCUCGGUAAUGGCGAAUGGGACCCA [C13A G52U] | 0.225 |
| GGCCGGCAUGGGCCCAGCCUCCUCGCUGGCGCCGGCUGGGCAACAUUCCGAGGGGACCGUCCCCUCGGUAAUGGCGAAAGGGACCCA [U12G U79A] | 0.939 |
| GGCCGGCAUGGGCCCAGCCUCCUCGCUGGCGCCGGCUGGGCAACAUUCCGAGGGGACCGUCCCCUCGGUAAUGGCGAAGGGGACCCA [U12G U79G] | 0.639 |
| GGCCGGCAUGGGCCCAGCCUCCUCGCUGGCGCCGGCUCGGCAACAUUCCGAGGGGACCGUCCCCUCGGUAAUGGCGAAUGGGACCCA [U12G G38C] | 0.178 |
| GGCCGGCAUGGGCCCAGCCUCCUCGCUGGCGCCGGCUUGGCAACAUUCCGAGGGGACCGUCCCCUCGGUAAUGGCGAAUGGGACCCA [U12G G38U] | 0.0755 |
| GGCCGGCAUGGUAGCAGCCUCCUCGCUGGCGCCGGCUGGGCAACAUUCCGAGGGGACCGUCCCCUCGGUAAUGGCGAAUGGGACCCA [C13A C14G] | 0.0978 |
| GGCCGGCAUGGUAUCAGCCUCCUCGCUGGCGCCGGCUGGGCAACAUUCCGAGGGGACCGUCCCCUCGGUAAUGGCGAAUGGGACCCA [C13A C14U] | 0.18 |
| GGCCGGCAUGGGCCCAGCCUCCUCGCUGGCGCCAGCUGGGCAACAUUCCGAGGGGACCGUCCCCUCGGUAAUGGCGAAUGGGACCCA [U12G G34A] | 0.0791 |
| GGCCGGCAUGGUACCAGCCUCCUCGCUGGCGCCGGCUGGGCAACAUUCCGAGGGGCCCGUCCCCUCGGUAAUGGCGAAUGGGACCCA [C13A A56C] | 0.156 |
| GGCCGGCAUGGUACCAGCCUCCUCGCUGGCGCCGGCUGGGGAACAUUCCGAGGGGACCGUCCCCUCGGUAAUGGCGAAUGGGACCCA [C13A C41G] | 0.0504 |
